Measured values: US20160264649A1

Assays:
Experiment in all cases: cell-based or functional assay
[1] = target: HIV-1 Env of isolate 94 KE 105 (subtype AC) (HIV-1)
[2] = target: HIV-1 Env of isolate 92UG031 (subtype A) (HIV-1)
[3] = target: HIV-1 Env of isolate 93UG077 (subtype A) (HIV-1)
[4] = target: HIV-1 Env of isolate MGRM-F1-018 (subtype F) (HIV-1)
[5] = target: HIV-1 Env of isolate MGRM-F1-010 (subtype F) (HIV-1)
[6] = target: HIV-1 Env of isolate MGRM-AE-003 (subtype AE) (HIV-1)
[7] = target: HIV-1 Env of isolate MGRM-D-016 (subtype D) (HIV-1)
[8] = target: HIV-1 Env of isolate 93WR029 (subtype A) (HIV-1)
[9] = target: HIV-1 Env of isolate 92UG114 (subtype D) (HIV-1)
[10] = target: HIV-1 Env of isolate MGRM-F1-008 (subtype F) (HIV-1)
[11] = target: HIV-1 Env of isolate MGRM-F1-004 (subtype F) (HIV-1)
[12] = target: HIV-1 Env of isolate 92WR021 (subtype A) (HIV-1)
[13] = target: HIV-1 Env of isolate MGRM-AE-005 (subtype AE) (HIV-1)
[14] = target: HIV-1 Env of isolate MGRM-D-011 (subtype D) (HIV-1)
[15] = target: HIV-1 Env of isolate CMU02 (subtype AE) (HIV-1)
[16] = target: HIV-1 Env of isolate 92UG037 (subtype A) (HIV-1)
[17] = target: HIV-1 Env of isolate 92WR020 (subtype A) (HIV-1)
[18] = target: HIV-1 Env of isolate MGRM-AE-002 (subtype AE) (HIV-1)
[19] = target: HIV-1 Env of isolate MGRM-F1-015 (subtype F) (HIV-1)
[20] = target: HIV-1 Env of isolate MGRM-D-019 (subtype D) (HIV-1)
[21] = target: HIV-1 Env of isolate MGRM-D-018 (subtype D) (HIV-1)
[22] = target: HIV-1 Env of isolate MGRM-F1-012 (subtype F) (HIV-1)
[23] = target: HIV-1 Env of isolate MGRM-AE-001 (subtype AE) (HIV-1)
[24] = target: HIV-1 Env of isolate MGRM-D-029 (subtype D) (HIV-1)
[25] = target: HIV-1 Env of isolate MGRM-F1-014 (subtype F) (HIV-1)
[26] = target: HIV-1 Env of isolate MGRM-F1-023 (subtype F) (HIV-1)
[27] = target: HIV-1 Env of isolate MGRM-AE-008 (subtype AE) (HIV-1)
[28] = target: HIV-1 Env of isolate VLGCA1 (subtype A) (HIV-1)
[29] = target: HIV-1 Env of isolate MGRM-AE-007 (subtype AE) (HIV-1)
[30] = target: HIV-1 Env of isolate MGRM-D-008 (subtype D) (HIV-1)
[31] = target: HIV-1 Env of isolate MGRM-D-005 (subtype D) (HIV-1)
[32] = target: HIV-1 Env of isolate MGRM-F1-020 (subtype F) (HIV-1)
[33] = target: HIV-1 Env of isolate MGRM-F1-017 (subtype F) (HIV-1)
[34] = target: HIV-1 Env of isolate MGRM-D-024 (subtype D) (HIV-1)
[35] = target: HIV-1 Env of isolate 92WR009 (subtype A) (HIV-1)
[36] = target: HIV-1 Env of isolate MGRM-D-012 (subtype D) (HIV-1)
[37] = target: HIV-1 Env of isolate 92WR026 (subtype A) (HIV-1)
[38] = target: HIV-1 Env of isolate MGRM-AE-006 (subtype AE) (HIV-1)
[39] = target: HIV-1 Env of isolate MGRM-F1-006 (subtype F) (HIV-1)
[40] = target: HIV-1 Env of isolate MGRM-D-003 (subtype D) (HIV-1)
[41] = target: HIV-1 Env of isolate MGRM-F1-022 (subtype F) (HIV-1)
[42] = target: HIV-1 Env of isolate MGRM-F1-016 (subtype F) (HIV-1)
[43] = target: HIV-1 Env of isolate 92WR024 (subtype A) (HIV-1)
[44] = target: HIV-1 Env of isolate MGRM-D-013 (subtype D) (HIV-1)
[45] = target: HIV-1 Env of isolate MGRM-AE-004 (subtype AE) (HIV-1)
[46] = target: HIV-1 Env of isolate 94UG103 (subtype A) (HIV-1)
[47] = target: HIV-1 Env of isolate MGRM-D-001 (subtype D) (HIV-1)
[48] = target: HIV-1 Env of isolate MGRM-F1-021 (subtype F) (HIV-1)
[49] = target: HIV-1 Env of isolate MGRM-D-004 (subtype D) (HIV-1)
[50] = target: HIV-1 Env of isolate MGRM-D-021 (subtype D) (HIV-1)
[51] = target: HIV-1 Env of isolate MGRM-D-014 (subtype D) (HIV-1)
[52] = target: HIV-1 Env of isolate MGRM-D-028 (subtype D) (HIV-1)
[53] = target: HIV-1 Env of isolate MGRM-D-002 (subtype D) (HIV-1)
[54] = target: HIV-1 Env of isolate MGRM-D-020 (subtype D) (HIV-1)
[55] = target: HIV-1 Env of isolate MGRM-D-026 (subtype D) (HIV-1)
[56] = target: HIV-1 Env of isolate 92TH021 (subtype AE) (HIV-1)
[57] = target: HIV-1 Env of isolate MGRM-F1-013 (subtype F) (HIV-1)
[58] = target: HIV-1 Env of isolate MGRM-D-022 (subtype D) (HIV-1)

PGT-144 (4970_K22) (antibody), sequence (VH): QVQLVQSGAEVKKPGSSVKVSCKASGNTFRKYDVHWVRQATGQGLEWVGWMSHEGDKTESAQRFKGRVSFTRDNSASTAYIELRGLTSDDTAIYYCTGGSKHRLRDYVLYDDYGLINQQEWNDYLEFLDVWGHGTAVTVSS
PGT-144 (4970_K22) (antibody), sequence (VL): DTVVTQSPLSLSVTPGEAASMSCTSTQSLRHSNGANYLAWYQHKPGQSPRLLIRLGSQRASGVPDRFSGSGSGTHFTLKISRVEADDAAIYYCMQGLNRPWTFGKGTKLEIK

Work on PGT-144 (4970_K22) (antibody) yielded an IC50 (pseudovirus neutralization) [1] of 0.29 mg/L, an IC50 (pseudovirus neutralization) [2] of 2.17 mg/L and an IC50 (pseudovirus neutralization) [3] greater than 50 mg/L. The IC50 (pseudovirus neutralization) [4] was greater than 50 mg/L, the IC50 (pseudovirus neutralization) [5] was greater than 50 mg/L and the IC50 (pseudovirus neutralization) [6] was greater than 50 mg/L. For the same substance, the IC50 (pseudovirus neutralization) [7] was greater than 50 mg/L, the IC50 (pseudovirus neutralization) [8] was 4.39 mg/L and the IC50 (pseudovirus neutralization) [9] was greater than 50 mg/L. It also gave an IC50 (pseudovirus neutralization) [10] of 0.507 mg/L, an IC50 (pseudovirus neutralization) [11] of 0.105 mg/L and an IC50 (pseudovirus neutralization) [12] greater than 50 mg/L. For the same substance, the IC50 (pseudovirus neutralization) [13] was greater than 50 mg/L, the IC50 (pseudovirus neutralization) [14] was greater than 50 mg/L and the IC50 (pseudovirus neutralization) [15] was greater than 50 mg/L. For the same substance, the IC50 (pseudovirus neutralization) [16] was 8.24 mg/L, the IC50 (pseudovirus neutralization) [17] was greater than 50 mg/L and the IC50 (pseudovirus neutralization) [18] was greater than 50 mg/L. For the same substance, the IC50 (pseudovirus neutralization) [19] was greater than 50 mg/L, the IC50 (pseudovirus neutralization) [20] was greater than 50 mg/L and the IC50 (pseudovirus neutralization) [21] was greater than 50 mg/L. It also gave an IC50 (pseudovirus neutralization) [22] greater than 50 mg/L, an IC50 (pseudovirus neutralization) [23] greater than 50 mg/L and an IC50 (pseudovirus neutralization) [24] of 0.459 mg/L. For the same substance, the IC50 (pseudovirus neutralization) [25] was 0.014 mg/L, the IC50 (pseudovirus neutralization) [26] was 1.16 mg/L and the IC50 (pseudovirus neutralization) [27] was 3.55 mg/L. It also gave an IC50 (pseudovirus neutralization) [28] greater than 50 mg/L, an IC50 (pseudovirus neutralization) [29] greater than 50 mg/L and an IC50 (pseudovirus neutralization) [30] of 9.85 mg/L. It also gave an IC50 (pseudovirus neutralization) [31] of 14.8 mg/L, an IC50 (pseudovirus neutralization) [32] of 8.93 mg/L and an IC50 (pseudovirus neutralization) [33] greater than 50 mg/L. For the same substance, the IC50 (pseudovirus neutralization) [34] was greater than 50 mg/L, the IC50 (pseudovirus neutralization) [35] was 0.893 mg/L and the IC50 (pseudovirus neutralization) [36] was greater than 50 mg/L. It also gave an IC50 (pseudovirus neutralization) [37] of 32.7 mg/L, an IC50 (pseudovirus neutralization) [38] greater than 50 mg/L and an IC50 (pseudovirus neutralization) [39] of 20.6 mg/L. The IC50 (pseudovirus neutralization) [40] was greater than 50 mg/L, the IC50 (pseudovirus neutralization) [41] was 0.382 mg/L and the IC50 (pseudovirus neutralization) [42] was greater than 50 mg/L. It also gave an IC50 (pseudovirus neutralization) [43] of 16.3 mg/L, an IC50 (pseudovirus neutralization) [44] greater than 50 mg/L and an IC50 (pseudovirus neutralization) [45] of 0.104 mg/L. It also gave an IC50 (pseudovirus neutralization) [46] greater than 50 mg/L, an IC50 (pseudovirus neutralization) [47] greater than 50 mg/L and an IC50 (pseudovirus neutralization) [48] greater than 50 mg/L. The IC50 (pseudovirus neutralization) [49] was greater than 50 mg/L, the IC50 (pseudovirus neutralization) [50] was greater than 50 mg/L and the IC50 (pseudovirus neutralization) [51] was 0.113 mg/L. For the same substance, the IC50 (pseudovirus neutralization) [52] was greater than 50 mg/L, the IC50 (pseudovirus neutralization) [53] was greater than 50 mg/L and the IC50 (pseudovirus neutralization) [54] was greater than 50 mg/L. It also gave an IC50 (pseudovirus neutralization) [55] greater than 50 mg/L, an IC50 (pseudovirus neutralization) [56] of 0.052 mg/L and an IC50 (pseudovirus neutralization) [57] of 0.509 mg/L. The IC50 (pseudovirus neutralization) [58] was greater than 50 mg/L.
